# Tested on: CC(=O)OCOC(=O)CN(CC(=O)OCOC(C)=O)Cc1c(OC(C)=O)ccc2c1Oc1c(ccc(OC(C)=O)c1CN(CC(=O)OCOC(C)=O)CC(=O)OCOC(C)=O)C21OC(=O)c2ccccc21
# Assay: TP_TRANSPORTER: efflux in K562/ADR cells
# Assay type: functional, cell-based
substance,measurement,value
ATP-dependent translocase ABCB1 (Homo sapiens),Km,0.12 µM
